# According to US20160304586A1:
# B1: CR11039 (antibody, V domains shown)
# VH: EVQLVQSGAEVKKPGESVKISCKTSGYAFTGYGISWVRQAPGQGLEWMGWINTYKFNTNYAQNLQGRVTMTIDTSTSAAYMELRSLRYEDTAVYFCARDWAGPFGNAFDVWGQGTMVTVSS
# VL: IQMTQSPSSLSASIGDRVAITCQASQDISDYLNWYQQQPGKAPKLLLYGASNLETGVPSRFSGSGSGTDFTFTISSLQPEDIATYYCQQYGNLPPTFGGGTKLEIK
# Biological target: hemagglutinin of influenza B virus (B/Brisbane/60/2008 BX-35) (Influenza B virus B/Brisbane/60/2008 BX-35)
# Experiment: cell-based or functional assay
binder,measurement,value
B1,"neutralizing capacity in MDCK cell culture, Experiment 5, CPE, undiluted virus",> 0.4 µg/mL
same,"neutralizing capacity in MDCK cell culture, Experiment 6, CPE, undiluted virus",> 0.8 µg/mL
